Reference: patent US8551493B2, “Peptide with reduced dimer formation” (Circassia Limited, priority 2007, dated 2013)
Where no end group is shown, it is not given here. [ ]: non-standard residue; d: D form. Abu = CC[C@H](N)C(=O)O

Columns and labels:
PBMCs [1] = experiment: Cytokine release assay (IFN-γ, IL-13) on PBMCs from house dust mite allergic individuals; format: cell-based, human; conditions: number of responders, N = 55 house dust mite allergic individuals; positive = at least 100 pg/ml of cytokine
From the text: The following Table presents results from a cytokine release assay performed on PBMCs taken from a population of house dust mite allergic individuals (N=number of individuals in population). A positive response is considered to be production of at least 100 pg/ml of cytokine.

[2] = Dimer formation of individual peptides and binary peptide mixtures, RP-HPLC; format: physicochemical
Method: The peptides used in this study have a minimum purity of >90%. The effectiveness of each additive to reduce dimer formation was assessed by size exclusion chromatography (SEC) and RP-HPLC. In SEC, molecules are separated based upon their apparent molecular weight. Smaller molecules can distribute into a greater proportion of the column matrix and are retained for longer than analytes of higher molecular weight. Dimers will elute from the column with an apparent molecular weight approximately twice that of the corresponding monomers. Separation by RP-HPLC separates species based on differences in their hydrophobicities. The amount of dimer formed is determined as a percentage of the total peak area ratio (% PAR) for the chromatogram.
Following the generation of data from the preliminary screening a further piece of work was undertaken to evaluate the ability of matrices containing Cysteine hydrochloride and 1-thioglycerol to inhibit the propensity of individual cysteine containing peptides and mixed pairs of these peptides to dimerize compared to the matrix alone. For each excipient mixtures of all the possible binary peptide combinations were prepared. […] The amount of dimer formed is determined as a percentage of the total peak area ratio (% PAR) for the chromatogram in each case.

PBMCs [3] = experiment: IL10 production assay in house dust mite allergic individuals (FIG. 1); format: cell-based, human; conditions: population of 34 house dust mite allergic individuals
Method: A typical cytokine release assay requires 40×10^6 PBMC's per subject. In more detail, 250 μl of a 200 μg/ml solution of the appropriate antigen or peptide concentration is distributed into the appropriate wells of 48 well plates. Plates are the incubated in a humidified 5% CO2 incubator at 37° C. for a maximum of 4 hours. 250 μl of a 5×10^6 cell/ml PBMC suspension is then added to each well and the plates returned to the incubator for 5 days. Following stimulation, samples of culture supernatant are harvested for testing by ELISA or multiplex bead assay according to standard protocols.

PBMCs [4] = experiment: IL-10 cytokine release assay on PBMCs from seven ragweed allergic individuals; format: cell-based, human; conditions: for IL-10: ragweed allergic, PBMC supernatant
From the text: The following Table presents results from a cytokine release assay performed on PBMCs taken from seven ragweed allergic individuals (A-G).

PBMCs [5] = experiment: IFN-gamma production by PBMCs from ragweed allergic individuals (FIG. 2); format: cell-based, human; conditions: PBMCs from a population of ragweed allergic individuals
Method: Using methods equivalent to those in Example 2, these peptides were tested for the ability to induce cytokine production in PBMCs taken from a population of ragweed allergic individuals.

[6] = T = 0, Control matrix, individual peptide sample
[7] = T = 0, Control matrix, mixed sample MLA01 and MLA05
[8] = T = 1 week, 25° C./60% RH, Control matrix, individual peptide sample
[9] = T = 1 week, 25° C./60% RH, Control matrix, mixed sample MLA01 and MLA04
[10] = T = 1 week, 25° C./60% RH, Control matrix, mixed sample MLA01 and MLA05
[11] = T = 1 week, 25° C./60% RH, Control matrix, mixed sample MLA01 and MLA12
[12] = T = 1 week, 25° C./60% RH, Cysteine matrix, mixed sample MLA01 and MLA12
[13] = T = 72 h, Control matrix, individual peptide sample
[14] = T = 72 h, Control matrix, mixed sample MLA01 and MLA04
[15] = T = 72 h, Control matrix, mixed sample MLA01 and MLA05
[16] = T = 72 h, Control matrix, mixed sample MLA01 and MLA12
[17] = T = 1 week, 25° C./60% RH, Control matrix, mixed sample MLA04 and MLA05
[18] = T = 1 week, 25° C./60% RH, Control matrix, mixed sample MLA05 and MLA12
[19] = T = 72 h, Control matrix, mixed sample MLA04 and MLA05
[20] = T = 72 h, Control matrix, mixed sample MLA05 and MLA12
[21] = T = 1 week, 25° C./60% RH, Control matrix, mixed sample MLA04 and MLA12
[22] = T = 72 h, Control matrix, mixed sample MLA04 and MLA12

## NYCQIYPPNVNKIREA [HDM101]
PBMCs [1]
  Responders with IFN-g >100: 2
  Responders with IL-13 >100: 1

## RFGISNYSQIYPPNVNK [HDM100A]
PBMCs [1]
  Responders with IFN-g >100: 10
  Responders with IL-13 >100: 8

## CPAVKRDVDLFLT (listed as Felis catus) [MLA01, derived from cat allergen Fel d1]
[2]; [6]
  Percentage peak area ratio (% PAR), dimers formed: 3.85 % PAR
[2]; T = 0, Control matrix, mixed sample MLA01 and MLA04
  Percentage peak area ratio (% PAR), dimers formed: 2.92 % PAR
[2]; [7]
  Percentage peak area ratio (% PAR), dimers formed: 2.73 % PAR
[2]; T = 0, Control matrix, mixed sample MLA01 and MLA12
  Percentage peak area ratio (% PAR), dimers formed: 2.7 % PAR
[2]; T = 0, Cysteine matrix, individual peptide sample
  Percentage peak area ratio (% PAR), dimers formed: 0.49 % PAR
[2]; T = 0, Cysteine matrix, mixed sample MLA01 and MLA04
  Percentage peak area ratio (% PAR), dimers formed: 0.48 % PAR
[2]; T = 0, Cysteine matrix, mixed sample MLA01 and MLA05
  Percentage peak area ratio (% PAR), dimers formed: 0.73 % PAR
[2]; T = 0, Cysteine matrix, mixed sample MLA01 and MLA12
  Percentage peak area ratio (% PAR), dimers formed: 0.2 % PAR
[2]; [8]
  Percentage peak area ratio (% PAR), dimers formed: 66.81 % PAR
[2]; [9]
  Percentage peak area ratio (% PAR), dimers formed: 39.49 % PAR
[2]; [10]
  Percentage peak area ratio (% PAR), dimers formed: 45.59 % PAR
[2]; [11]
  Percentage peak area ratio (% PAR), dimers formed: 40.03 % PAR
[2]; T = 1 week, 25° C./60% RH, Cysteine matrix, mixed sample MLA01 and MLA04
  Percentage peak area ratio (% PAR), dimers formed: 0.52 % PAR
[2]; T = 1 week, 25° C./60% RH, Cysteine matrix, mixed sample MLA01 and MLA05
  Percentage peak area ratio (% PAR), dimers formed: 0.26 % PAR
[2]; [12]
  Percentage peak area ratio (% PAR), dimers formed: 0.23 % PAR
[2]; [13]
  Percentage peak area ratio (% PAR), dimers formed: 43.81 % PAR
[2]; [14]
  Percentage peak area ratio (% PAR), dimers formed: 35.47 % PAR
[2]; [15]
  Percentage peak area ratio (% PAR), dimers formed: 41.11 % PAR
[2]; [16]
  Percentage peak area ratio (% PAR), dimers formed: 29.62 % PAR

## NYSQIYPPNVNKIREA [HDM101A]
PBMCs [1]
  Responders with IFN-g >100: 4
  Responders with IL-13 >100: 4

## RILKNCVDAKMTEEDKE (listed as Felis catus) [MLA05, derived from cat allergen Fel d1]
[2]; [6]
  Percentage peak area ratio (% PAR), dimers formed: 0.55 % PAR
[2]; [7]
  Percentage peak area ratio (% PAR), dimers formed: 0.35 % PAR
[2]; [8]
  Percentage peak area ratio (% PAR), dimers formed: 1.65 % PAR
[2]; [10]
  Percentage peak area ratio (% PAR), dimers formed: 3.18 % PAR
[2]; [17]
  Percentage peak area ratio (% PAR), dimers formed: 3.26 % PAR
[2]; [18]
  Percentage peak area ratio (% PAR), dimers formed: 1.85 % PAR
[2]; T = 1 week, 25° C./60% RH, Cysteine matrix, individual peptide sample
  Percentage peak area ratio (% PAR), dimers formed: 0.21 % PAR
[2]; [13]
  Percentage peak area ratio (% PAR), dimers formed: 1.99 % PAR
[2]; [15]
  Percentage peak area ratio (% PAR), dimers formed: 2.21 % PAR
[2]; [19]
  Percentage peak area ratio (% PAR), dimers formed: 2.25 % PAR
[2]; [20]
  Percentage peak area ratio (% PAR), dimers formed: 8.17 % PAR

## RFGISNYCQIYPPNVNK [HDM100]
PBMCs [1]
  Responders with IFN-g >100: 6
  Responders with IL-13 >100: 6

## NAQRFGISNYSQI [HDM102A]
PBMCs [1]
  Responders with IFN-g >100: 14
  Responders with IL-13 >100: 16

## RFGISNYBQIYPPNVNK (RFGISNY[Abu]QIYPPNVNK) [HDM100B, B=2-aminobutyric acid]
PBMCs [1]
  Responders with IFN-g >100: 6
  Responders with IL-13 >100: 10

## NAQRFGISNYBQI (NAQRFGISNY[Abu]QI) [HDM102B, B=2-aminobutyric acid]
PBMCs [1]
  Responders with IFN-g >100: 15
  Responders with IL-13 >100: 17

## HDM203B: house dust mite Der p1 derived peptide of the HDM203 family tested for IL10 production (DLRQMRTVTPIRMQGGSGS; HDM203B* synthetic peptide)
PBMCs [3]
  IL10 production, engineered versus non-engineered peptides: not significantly different

## NAQRFGISNYCQI [HDM102]
PBMCs [1]
  Responders with IFN-g >100: 16
  Responders with IL-13 >100: 13

## KALPVVLENARILKNCV (listed as Felis catus) [MLA04, derived from cat allergen Fel d1]
[2]; [8]
  Percentage peak area ratio (% PAR), dimers formed: 4.76 % PAR
[2]; [9]
  Percentage peak area ratio (% PAR), dimers formed: 2.71 % PAR
[2]; [17]
  Percentage peak area ratio (% PAR), dimers formed: 2.32 % PAR
[2]; [21]
  Percentage peak area ratio (% PAR), dimers formed: 2.42 % PAR
[2]; [13]
  Percentage peak area ratio (% PAR), dimers formed: 2.51 % PAR
[2]; [14]
  Percentage peak area ratio (% PAR), dimers formed: 1.32 % PAR
[2]; [19]
  Percentage peak area ratio (% PAR), dimers formed: 0.91 % PAR
[2]; [22]
  Percentage peak area ratio (% PAR), dimers formed: 0.44 % PAR

## TAMKKIQDCYVENGLI (listed as Felis catus) [MLA12, derived from cat allergen Fel d1]
[2]; [8]
  Percentage peak area ratio (% PAR), dimers formed: 1.72 % PAR
[2]; [11]
  Percentage peak area ratio (% PAR), dimers formed: 3.43 % PAR
[2]; [21]
  Percentage peak area ratio (% PAR), dimers formed: 2.13 % PAR
[2]; [18]
  Percentage peak area ratio (% PAR), dimers formed: 1.28 % PAR
[2]; [12]
  Percentage peak area ratio (% PAR), dimers formed: 0.18 % PAR
[2]; T = 1 week, 25° C./60% RH, Cysteine matrix, mixed sample MLA04 and MLA12
  Percentage peak area ratio (% PAR), dimers formed: 0.32 % PAR
[2]; [13]
  Percentage peak area ratio (% PAR), dimers formed: 0.46 % PAR
[2]; [16]
  Percentage peak area ratio (% PAR), dimers formed: 2.09 % PAR
[2]; [22]
  Percentage peak area ratio (% PAR), dimers formed: 1.1 % PAR
[2]; [20]
  Percentage peak area ratio (% PAR), dimers formed: 9.78 % PAR
[2]; T = 72 h, Cysteine matrix, mixed sample MLA01 and MLA12
  Percentage peak area ratio (% PAR), dimers formed: 0.1 % PAR
[2]; T = 72 h, Cysteine matrix, mixed sample MLA04 and MLA12
  Percentage peak area ratio (% PAR), dimers formed: 0.33 % PAR

## NYBQIYPPNVNKIREA (NY[Abu]QIYPPNVNKIREA) [HDM101B, B=2-aminobutyric acid]
PBMCs [1]
  Responders with IFN-g >100: 1
  Responders with IL-13 >100: 2

## RGW02: engineered (modified) peptide derived from ragweed pollen major allergen Amb a 1 (GSSQIWIDHSSLSKS; RGW02* synthetic peptide)
PBMCs [4]; Subject A
  IL-10: 248.91 pg/mL
PBMCs [4]; Subject B
  IL-10: 227.18 pg/mL
PBMCs [4]; Subject C
  IL-10: 452.45 pg/mL
PBMCs [4]; Subject D
  IL-10: 80.54 pg/mL
PBMCs [4]; Subject E
  IL-10: 310.34 pg/mL
PBMCs [4]; Subject F
  IL-10: 203.12 pg/mL
PBMCs [4]; Subject G
  IL-10: 283.75 pg/mL
PBMCs [4]; seven ragweed allergic individuals (A-G)
  level of production of IL-10 compared with the original peptide (RGW02A): not significantly different
PBMCs [5]
  IFN-gamma production compared with the non-engineered peptide: does not induce significantly different responses
